Measurements taken from paper PMC4092090, “Investigation of a MMP-2 Activity-Dependent Anchoring Probe for Nuclear Imaging of Cancer” (PLoS ONE, 2014).
“Also recorded” adds a separate entry of the source.

Key:
[1] = biological target: T1, Human-recombinant MMP-2 protein (Homo sapiens, UniProt P08253); test: Cleavage assay; format: biochemical; conditions: activated MMP-2 1–5 nM, 370 kBq probe, 37°C, 2 hr, pH 7.5 assay buffer, RP-HPLC, Fig. 3b
T1 construct: purchased R & D Systems, Inc. 902-MP-010
T1 sequence (P08253 110-660): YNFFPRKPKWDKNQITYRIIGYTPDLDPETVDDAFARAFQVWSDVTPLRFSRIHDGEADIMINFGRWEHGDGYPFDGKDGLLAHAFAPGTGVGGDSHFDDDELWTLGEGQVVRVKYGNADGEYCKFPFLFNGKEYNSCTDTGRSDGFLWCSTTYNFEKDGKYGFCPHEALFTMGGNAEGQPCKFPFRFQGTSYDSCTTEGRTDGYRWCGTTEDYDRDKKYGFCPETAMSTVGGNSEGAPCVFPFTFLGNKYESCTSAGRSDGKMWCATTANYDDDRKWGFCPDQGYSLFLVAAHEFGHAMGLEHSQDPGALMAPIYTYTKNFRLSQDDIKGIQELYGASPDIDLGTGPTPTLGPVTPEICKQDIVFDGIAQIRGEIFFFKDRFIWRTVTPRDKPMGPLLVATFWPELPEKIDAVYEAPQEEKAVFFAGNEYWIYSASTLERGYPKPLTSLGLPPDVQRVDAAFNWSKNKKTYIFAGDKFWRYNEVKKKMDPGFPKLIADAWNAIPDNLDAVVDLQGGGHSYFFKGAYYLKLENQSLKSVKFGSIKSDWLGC
Method: Human-recombinant MMP-2 protein (902-MP-010, R & D Systems, Inc., Minneapolis, MN USA) was activated with p-aminophenylmercuric acetate (1 mM) in assay buffer (50 mM Tris-HCl, 150 mM NaCl, 10 mM CaCl2, 5 µM ZnCl2, 0.02% Brij 35, pH 7.5). MDAP1000, MDAP3000, and MDAP5000 (370 kBq) were incubated at 37°C for 2 hr with activated MMP-2 (1–5 nM) and a MMP inhibitor (0 or 100 µM, GM6001, Merck KGaA, Darmstadt, Germany). The reaction was quenched by addition of methanol, and the percentage of cleaved peptide was estimated by RP-HPLC.

[2] = tested on: HT1080 human fibrosarcoma cells; test: Cellular uptake study; format: cell-based; conditions: 5×10^5 HT1080 cells, FBS-free DMEM, 37 kBq probe, 30 min incubation, radioactivity counting, Fig. 3a
Method: HT1080 human fibrosarcoma cells were purchased from American Type Culture Collection (ATCC, Manassas, VA USA) and cultured in DMEM with low glucose (Invitrogen), 10% fetal bovine serum (FBS), and penicillin/streptomycin. MMP-2 cDNA was cloned into the pENTR vector (Invitrogen) and inserted into the pLenti6 vector (Invitrogen) as previously described, [7]. […] Protein quantitation was performed by BCA protein assay (Thermo Fisher Scientific, Inc. Rockford, IL USA). The cellular uptake study of MDAP3000 pretreated with activated MMP-2 (63 nM) in the presence or absence of GM6001 (100 µM) was performed as described above.

[3] = format: physicochemical; conditions: pH 7.4
Method: The experimental determination of probe partition coefficients (log P values) was performed in 1-octanol and 0.02 M phosphate buffer pH 7.4 where the two phases were pre-saturated with each other. 1-Octanol (200 µl) and phosphate buffer (200 µl) were pipetted into LoBind Eppendorf tubes containing 0.37 MBq of probes. The tube was vortexed for 10 seconds, and centrifuged (5 min, 4000×g). Aliquots (50 µl) from the 1-octanol and buffer phases were transferred into two test tubes for radioactivity counting with a NaI well-type scintillation counter (1470 WIZARD, Perkin Elmer, Kanagawa, Japan). The partition coefficient was calculated using the equation P = (counts/µl in 1-octanol)/(counts/µl in buffer).

[4] = tested on: HT1080 tumor bearing mice; set-up: species or system mouse (Balb/c nu-nu); conditions: mouse, in vivo, iv
Method: Female Balb/c nu-nu mice (5 weeks old, Japan SLC, Inc., Shizuoka, Japan) were housed under a 12-h light/12-h dark cycle and given free access to food and water. HT1080 cells (5×10^6 cells/100 μl PBS (-)/mouse) were subcutaneously inoculated into the right hind leg of Balb/c nu-nu mice. Animals were used for experiments two weeks after inoculation when the mean tumor size was 5.7±2.2 mm along the major axis. […]3000 and […] (37 kBq, 100 μl in PBS including 3% bovine serum albumin and 0.1% Tween 80) were injected intravenously into the tail vein of tumor bearing mice. The mice were sacrificed at various post-injection time points (n = 3 for each time point), and the organs of interest including the tumor tissues were collected for determination of the weights. The radioactivity of each sample was measured with a NaI well-type scintillation counter. From fitting to the two phase decay curves for blood radioactivity data analyzed by GraphPad Prism 6 (GraphPad Software, San Diego, CA), whole body pharmacokinetic parameters such as blood half-lives, distribution volume, mean residence time and total clearance were calculated for each of the probes and the values compared. Simple pharmacokinetic analysis using a single tissue compartment model was applied to the biodistribution data to calculate rate constants (K1 and k2) for radioactivity transfer from blood to tumor and clearance from tumor to blood by PMOD version 3.2. In addition, MDAP3000 (7.4 MBq in 200 μl) was injected intravenously into the tail vein of tumor bearing mice for metabolite analysis in tumors excised 3, 6, and 24 hr post injection (n = 2 each). Tumor homogenates were prepared on ice and insoluble material was removed by centrifugation after methanol treatment. The resulting supernatant was analyzed by RP-HPLC.

[5] = tested on: HT1080 tumor bearing mice; set-up: species or system mouse (Balb/c nu-nu); conditions: mouse, in vivo, iv; remark: listed apart in the source
Method: (§1) […]3000 and […] (37 kBq, 100 μl in PBS including 3% bovine serum albumin and 0.1% Tween 80) were injected intravenously into the tail vein of tumor bearing mice. The mice were sacrificed at various post-injection time points (n = 3 for each time point), and the organs of interest including the tumor tissues were collected for determination of the weights. The radioactivity of each sample was measured with a NaI well-type scintillation counter. From fitting to the two phase decay curves for blood radioactivity data analyzed by GraphPad Prism 6 (GraphPad Software, San Diego, CA), whole body pharmacokinetic parameters such as blood half-lives, distribution volume, mean residence time and total clearance were calculated for each of the probes and the values compared. Simple pharmacokinetic analysis using a single tissue compartment model was applied to the biodistribution data to calculate rate constants (K1 and k2) for radioactivity transfer from blood to tumor and clearance from tumor to blood by PMOD version 3.2. In addition, MDAP3000 (7.4 MBq in 200 μl) was injected intravenously into the tail vein of tumor bearing mice for metabolite analysis in tumors excised 3, 6, and 24 hr post injection (n = 2 each). Tumor homogenates were prepared on ice and insoluble material was removed by centrifugation after methanol treatment. The resulting supernatant was analyzed by RP-HPLC.

[6] = tested on: HT1080 tumor xenograft; set-up: species or system mouse (Balb/c nu-nu); conditions: mouse, in vivo, iv
Method: as §1

Substance | Cleavage by MMP-2 [1] | Cellular accumulation (radioactivity in tumor cells) [2] | log P (partition coefficient) [3] | Blood clearance (in words) [4] | T/B ratios over the experimental period [4] | Blood half-life, Fast [5] [h] | Clearance (total clearance) [5] [mL/min] | Distribution volume [5] [mL] | Mean residence time [5] [min] | K1, rate constant for transfer from blood to tumor, Mean [6] [mL/g/min]
Palmitoyl-Dap(p-SCN-Bn-DTPA-^111In)-10-Adc-Gly-Pro-Leu-Gly-Val-Arg-Gly-Lys(ivDde)-PEG5000 [MDAP5000] | concentration-dependent manner; also recorded: rather low | significantly lower radioactivity | −1.04±0.16 |  |  |  |  |  |  | 
Palmitoyl-Dap(p-SCN-Bn-DTPA-^111In)-10-Adc-Gly-Pro-Leu-Gly-OH [MDAPCV] |  | high accumulation group | 0.29±0.07 | slow blood clearance | less than 0.3 | 4.17 | 0.0025 | 2.16 | 860 | 0.0022
